The values below come from article PMC7810871.

The test deals with EsxE-EsxF heterodimer (Mycobacterium tuberculosis) (UniProt P9WNH8). In words: negative-stain electron microscopy.

Take “EsxE-EsxF heterodimer (from UniProt P9WNH8 1-90; P9WNH6 1-103) (complex)”: the stoichiometry N was 5.

By stoichiometry N is commonly meant a count of units in the complex or per binding partner.
